Reference: publication PMC4163015 (Cell, 2014)

Molecular target: T1, heterodimeric cofactor Ufd1p/Npl4p (S. cerevisiae, UniProt P53044 1-361; P33755 1-580)
T1 sequence (looked up) 1: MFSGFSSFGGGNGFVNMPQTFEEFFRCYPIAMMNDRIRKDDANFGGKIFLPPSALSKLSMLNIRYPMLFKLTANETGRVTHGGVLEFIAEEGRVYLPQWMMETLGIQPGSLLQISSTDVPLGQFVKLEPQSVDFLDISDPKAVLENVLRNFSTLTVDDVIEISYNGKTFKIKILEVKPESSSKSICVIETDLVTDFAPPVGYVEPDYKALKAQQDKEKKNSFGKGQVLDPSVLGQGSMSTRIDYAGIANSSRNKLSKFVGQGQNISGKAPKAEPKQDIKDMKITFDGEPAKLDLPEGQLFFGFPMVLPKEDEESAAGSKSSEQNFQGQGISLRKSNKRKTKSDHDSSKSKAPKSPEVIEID
T1 sequence (looked up) 2: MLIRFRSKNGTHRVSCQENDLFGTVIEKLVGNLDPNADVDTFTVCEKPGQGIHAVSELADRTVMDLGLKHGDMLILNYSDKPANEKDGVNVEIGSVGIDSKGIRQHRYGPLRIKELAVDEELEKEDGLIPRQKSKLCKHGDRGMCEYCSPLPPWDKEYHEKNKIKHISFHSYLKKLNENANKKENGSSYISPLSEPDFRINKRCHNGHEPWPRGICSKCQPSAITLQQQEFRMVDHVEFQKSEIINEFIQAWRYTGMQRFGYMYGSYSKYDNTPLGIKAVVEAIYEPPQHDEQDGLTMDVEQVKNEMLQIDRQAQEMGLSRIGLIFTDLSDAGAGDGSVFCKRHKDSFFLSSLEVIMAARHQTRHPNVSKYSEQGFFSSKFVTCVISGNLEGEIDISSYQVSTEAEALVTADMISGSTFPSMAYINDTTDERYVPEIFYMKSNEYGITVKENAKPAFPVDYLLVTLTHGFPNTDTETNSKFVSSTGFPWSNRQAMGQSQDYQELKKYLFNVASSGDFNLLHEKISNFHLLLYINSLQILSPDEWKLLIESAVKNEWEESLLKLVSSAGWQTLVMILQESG
Experiment: SEC

B1: Cdc48p ATPase (enzyme, S. cerevisiae, UniProt P25694 1-835, looked up)
chain: MGEEHKPLLDASGVDPREEDKTATAILRRKKKDNMLLVDDAINDDNSVIAINSNTMDKLELFRGDTVLVKGKKRKDTVLIVLIDDELEDGACRINRVVRNNLRIRLGDLVTIHPCPDIKYATRISVLPIADTIEGITGNLFDVFLKPYFVEAYRPVRKGDHFVVRGGMRQVEFKVVDVEPEEYAVVAQDTIIHWEGEPINREDEENNMNEVGYDDIGGCRKQMAQIREMVELPLRHPQLFKAIGIKPPRGVLMYGPPGTGKTLMARAVANETGAFFFLINGPEVMSKMAGESESNLRKAFEEAEKNAPAIIFIDEIDSIAPKRDKTNGEVERRVVSQLLTLMDGMKARSNVVVIAATNRPNSIDPALRRFGRFDREVDIGIPDATGRLEVLRIHTKNMKLADDVDLEALAAETHGYVGADIASLCSEAAMQQIREKMDLIDLDEDEIDAEVLDSLGVTMDNFRFALGNSNPSALRETVVESVNVTWDDVGGLDEIKEELKETVEYPVLHPDQYTKFGLSPSKGVLFYGPPGTGKTLLAKAVATEVSANFISVKGPELLSMWYGESESNIRDIFDKARAAAPTVVFLDELDSIAKARGGSLGDAGGASDRVVNQLLTEMDGMNAKKNVFVIGATNRPDQIDPAILRPGRLDQLIYVPLPDENARLSILNAQLRKTPLEPGLELTAIAKATQGFSGADLLYIVQRAAKYAIKDSIEAHRQHEAEKEVKVEGEDVEMTDEGAKAEQEPEVDPVPYITKEHFAEAMKTAKRSVSDAELRRYEAYSQQMKASRGQFSNFNFNDAPLGTTATDNANSNNSAPSGAGAAFGSNAEEDDDLYS
binding result: binds
